{
  "source": "patent US11819552B2",
  "about": "“Antibody-drug conjugates targeting uPARAP” (RIGSHOSPITALET, priority 2016, dated 2023)",
  "origin": "cited, not measured here",
  "molecules": {"B1": {"name": "mAb 5f4: mouse monoclonal IgG1K anti-uPARAP antibody, epitope in the FN-II domain (antibody, V domains shown)", "VL": "DIVMTQSQKFMSTSLGARVSITCKASQNVGSNVVWYQQKLGQSPKALIYSASSRFSGVPDRFTGSGSGTDFTLTISNVQSEDLAEYFCQQYNTYPLAFGAGTKLELK", "VH": "DVQLQESGPGLVKPSQSLSVTCTVTGYSITNAYYWNWIRHFPGNKLEWLGYIHSSGDTNYNPSLKSRISITRDTSKNQFFLQLNSVTTEDTATYYCARSPYYSNYFPYWGQGTLVTVSA"}},
  "details_in_all_cases": "Jürgensen et al., 2014; cited from earlier work",
  "key": {"uPARAP [1]": {"tested_on": "uPARAP"}, "uPARAP [2]": {"molecular_target": "T1, uPARAP (Homo sapiens, UniProt Q9UBG0)", "T1 sequence (Q9UBG0 31-1479)": "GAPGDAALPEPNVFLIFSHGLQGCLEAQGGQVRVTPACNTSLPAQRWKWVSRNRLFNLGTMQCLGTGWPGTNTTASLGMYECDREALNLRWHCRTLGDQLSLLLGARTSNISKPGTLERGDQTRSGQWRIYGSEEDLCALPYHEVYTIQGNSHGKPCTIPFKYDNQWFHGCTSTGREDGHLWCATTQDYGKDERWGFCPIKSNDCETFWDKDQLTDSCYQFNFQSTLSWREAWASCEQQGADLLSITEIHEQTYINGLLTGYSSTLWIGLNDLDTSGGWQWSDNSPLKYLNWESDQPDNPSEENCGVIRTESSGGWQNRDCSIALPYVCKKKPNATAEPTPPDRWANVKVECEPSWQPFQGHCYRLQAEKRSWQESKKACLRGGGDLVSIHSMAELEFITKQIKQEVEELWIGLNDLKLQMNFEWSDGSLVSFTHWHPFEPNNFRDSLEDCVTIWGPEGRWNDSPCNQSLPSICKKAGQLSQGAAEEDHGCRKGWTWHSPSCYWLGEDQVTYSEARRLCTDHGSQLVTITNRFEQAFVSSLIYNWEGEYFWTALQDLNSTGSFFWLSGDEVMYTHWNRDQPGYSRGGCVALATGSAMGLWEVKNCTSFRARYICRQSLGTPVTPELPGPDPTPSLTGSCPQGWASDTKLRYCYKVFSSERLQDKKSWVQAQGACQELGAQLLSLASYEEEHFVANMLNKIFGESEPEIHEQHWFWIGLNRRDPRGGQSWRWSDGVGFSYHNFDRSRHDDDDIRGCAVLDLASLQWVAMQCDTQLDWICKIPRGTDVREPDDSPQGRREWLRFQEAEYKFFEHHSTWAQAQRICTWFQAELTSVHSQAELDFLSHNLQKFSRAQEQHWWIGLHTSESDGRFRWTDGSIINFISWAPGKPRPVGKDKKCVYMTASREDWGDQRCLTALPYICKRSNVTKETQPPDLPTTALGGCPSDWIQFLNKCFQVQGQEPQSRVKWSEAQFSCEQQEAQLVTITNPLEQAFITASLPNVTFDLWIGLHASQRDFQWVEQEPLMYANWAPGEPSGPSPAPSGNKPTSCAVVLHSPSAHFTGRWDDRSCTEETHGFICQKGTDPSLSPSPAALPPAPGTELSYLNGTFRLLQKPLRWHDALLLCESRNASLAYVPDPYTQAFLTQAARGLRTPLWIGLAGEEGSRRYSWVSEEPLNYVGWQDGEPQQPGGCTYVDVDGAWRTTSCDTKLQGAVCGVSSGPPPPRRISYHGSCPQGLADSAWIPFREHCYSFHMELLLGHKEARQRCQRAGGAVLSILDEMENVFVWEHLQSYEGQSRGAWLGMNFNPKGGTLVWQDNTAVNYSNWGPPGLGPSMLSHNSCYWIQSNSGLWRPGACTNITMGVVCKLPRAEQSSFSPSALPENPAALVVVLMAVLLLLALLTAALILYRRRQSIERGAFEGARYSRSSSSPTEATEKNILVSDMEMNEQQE"}, "[3]": {"tested_on": "other members of the mannose receptor family"}},
  "data": [
    {"molecule": "B1", "values": [
      {"measurement": "Binding to uPARAP with FN-II domain swapped with that of other family members", "setting": "uPARAP [1]", "result": "not capable of binding"},
      {"measurement": "Binding to wildtype uPARAP", "setting": "uPARAP [2]", "result": "capable of binding"},
      {"measurement": "Binding to artificial family members with FN-II domain switched with that of uPARAP", "setting": "[3]", "result": "capable of binding"},
      {"measurement": "Binding to other mannose receptor family members in wildtype form", "setting": "[3]", "result": "not capable of binding"}
    ]}
  ]
}
